pEC50: −log10 of the molar value.
Columns and labels:
[1] = molecular target: UG37 gp140 (HIV-1); assay: ELISA; gp140 coated at 2 ug/ml (2 hr, 37 C); CD4-IgG2 titrated, 2 hr at RT; detected with anti-human-IgG-HRP; one-site binding fit, EC50 at 50% of maximum binding
[2] = molecular target: UG37 gp140 (HIV-1); assay: SEC; Superdex200 26/60; trimer peak after Talon, re-run after GNA-lectin capture

Substance: CD4-IgG2 (from UniProt P01730 26-458) (Fc fusion)
- pEC50 [1]: 9.74

Substance: UG37 gp140 (domain or fragment)
- stoichiometry N [2]: 3
